# Data published in paper PMC12146755.
# What was measured:
# [1] = target: CD3ε (antigen of the surface plasmon resonance) (human) (UniProt P07766); experiment: SPR; conditions: bispecific antibody
# Target sequence in this assay (P07766 23-126): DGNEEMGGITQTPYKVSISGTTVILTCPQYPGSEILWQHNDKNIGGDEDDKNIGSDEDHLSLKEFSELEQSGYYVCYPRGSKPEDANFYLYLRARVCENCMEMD
# [2] = target: Her2 (antigen of the surface plasmon resonance) (human) (UniProt P04626); experiment: SPR; conditions: bispecific antibody
# [3] = target: CD3ε (antigen of the surface plasmon resonance) (human) (UniProt P07766); experiment: SPR; format and conditions not given in the main text (SI Appendix, Fig. S1 D-F)
# Target sequence in this assay (P07766 23-207): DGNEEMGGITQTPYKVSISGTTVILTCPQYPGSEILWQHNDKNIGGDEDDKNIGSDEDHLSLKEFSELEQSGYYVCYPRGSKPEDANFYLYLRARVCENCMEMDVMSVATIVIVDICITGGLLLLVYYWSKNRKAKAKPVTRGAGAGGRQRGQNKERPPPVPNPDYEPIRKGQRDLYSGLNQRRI
substance,measurement,setting,value
"Bispecific T cell engager Format A (anti-Her2 x anti-CD3ε, IgG1-based) (from UniProt P01857)",Kd,[1],3.8 nM
same,Kd,[2],0.156 nM
"Bispecific T cell engager Format B (anti-Her2 x anti-CD3ε, IgG1-based) (from UniProt P01857)",Kd,[1],4.2 nM
same,Kd,[2],0.249 nM
"Bispecific T cell engager Format C (anti-Her2 x anti-CD3ε, IgG1-based) (bispecific antibody)",Kd,[3],< 10 nM
"Bispecific T cell engager Format A (anti-Her2 x anti-CD3ε, IgG1-based) (bispecific antibody)",Kd,[3],< 10 nM
"Bispecific T cell engager Format C (anti-Her2 x anti-CD3ε, IgG1-based) (from UniProt P01857)",Kd,[1],5.4 nM
same,Kd,[2],0.086 nM
"Bispecific T cell engager Format B (anti-Her2 x anti-CD3ε, IgG1-based) (bispecific antibody)",Kd,[3],< 10 nM
